Data from patent publication US20230295323A1 (DONGDA BIOSCIENCE INC SUZHOU, published 2023).

Columns and labels:
human GITR (ECD)-mFc = target: T1, human GITR (ECD)-mFc (human, UniProt Q9Y5U5 26-162); assay: ELISA, plate-coated GITR-mFc
T1 construct: extracellular domain; Bought (Dongda Bioscience); also called GITR-mFc; not shown: mouse Fc (mFc)
T1 sequence (looked up): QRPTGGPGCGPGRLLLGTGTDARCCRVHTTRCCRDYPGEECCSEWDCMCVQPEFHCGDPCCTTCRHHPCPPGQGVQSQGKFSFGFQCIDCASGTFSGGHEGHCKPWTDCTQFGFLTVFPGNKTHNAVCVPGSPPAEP
Procedure: As indicated by the X axis, the concentrations of the test antibodies were 20000 ng/mL, 2000 ng/mL, 200 ng/mL, 20 ng/mL, 2 ng/mL, 0.2 ng/mL, 0.02 ng/mL, 0.002 ng/mL, 0.0002 ng/mL, and 0.00002 ng/mL.

[1] = target: T2, human GITR on cells (293T-GITR, Jurkat-hGITR / Jurkat-GITR, Jurkat-GITR-NF-kB, 293T-GITR-NFkb-luc, primary … (human, UniProt Q9Y5U5 26-241)); assay: FACS (MFI), binding to Jurkat-GITR cells
T2 construct: whole, on cells; also called TNFRSF18; CD357
T2 sequence (looked up): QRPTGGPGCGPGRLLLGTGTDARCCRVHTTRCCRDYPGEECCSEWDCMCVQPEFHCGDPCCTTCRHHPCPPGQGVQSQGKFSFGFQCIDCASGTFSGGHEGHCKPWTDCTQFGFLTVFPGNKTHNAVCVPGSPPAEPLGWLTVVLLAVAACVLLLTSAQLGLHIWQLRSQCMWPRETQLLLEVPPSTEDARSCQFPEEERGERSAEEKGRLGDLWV

[2] = target: T2, human GITR on cells (293T-GITR, …); assay: FACS, blocking of GITR-L (0.25 ug/mL) binding to Jurkat-GITR cells
GITR-ECD-hFc = target: T3, GITR-ECD-hFc (UniProt Q9Y5U5 26-162, limits assumed); assay: ELISA, plate-coated GITR-ECD-hFc
T3 construct: extracellular domain; not shown: human Fc (hFc)
T3 sequence (looked up): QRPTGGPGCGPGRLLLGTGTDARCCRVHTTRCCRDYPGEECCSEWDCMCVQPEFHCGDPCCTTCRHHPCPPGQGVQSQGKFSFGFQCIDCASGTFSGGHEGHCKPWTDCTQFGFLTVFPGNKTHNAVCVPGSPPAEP
Procedure: ELISA assay: a 96-well ELISA plate (Corning, Cat No: 9018) was inoculated with GITR-ECD-hFc, left standing overnight at 4° C., and washed 3 times with washing buffer (PBS+0.05% Tween 20), then blocking buffer (PBS+1% BSA (Sigma, Cat No: V90093)) was added, and the 96-well ELISA plate was incubated for 1 hour and washed 3 times; hybridoma supernatant was added, the 96-well ELISA plate was incubated for 1 hour and washed 3 times, 100 µL of goat anti-mouse IgG secondary antibodies (Thermo, Cat No: 31432) diluted at a ratio of 1:10000 was added into each well, and the 96-well ELISA plate was incubated at room temperature for 1 hour and washed 3 times. 100 µL of TMB (Biosubstrate Technologies, Cat No: ES-002) was added into each well and left standing for 3 minutes for color development, then a stop solution (2N H₂SO₄) was added at a dose of 100 µL/well to terminate the reaction, and OD450×signal of each sample was measured with a Tecan Spark microplate reader.

[3] = target: T2, human GITR on cells (293T-GITR, …); assay: FACS competition on Jurkat-hGITR cells; competitor biotin-labeled human GITR ligand
Procedure: FACS assay for the blocking effect of the antibodies: FACS assay was conducted by using BD C6 to determine the blocking effect of the hybridoma antibodies on the binding of biotin-labeled human GITR ligands to Jurkat-hGITR cells. Jurkat-hGITR cells were suspended in FACS buffer (PBS containing 3% FBS). Diluted hybridoma antibodies were added into the cell suspension and the mixture was incubated in a 96-well plate for 1 hour at 4° C. […] After incubation, the 96-well plate was washed 3 times, and mouse anti-biotin PE antibodies (Biolgend, Cat No: 409004) were added and incubated at 4° C. for 0.5 hours. The cells in the 96-well plate were washed 3 times and finally analyzed with BD C6.

B1: 3F5 (humanized) -hIgG1 (antibody, V domains shown)
VH: QVQLVQSGAEVKKPGASVKVSCKASGYTFTDHYMHWVRQAPGQGLEWIGDINPNSGGTINNQNFKGRATLTVDKSISTAYMELSRLRSDDTAVYYCARGFSGLAYWGQGTLVTVSS
VL: DIVMTQTPLSSPVTLGQPASISCKSSQSLLDRDGKTYLNWLQQRPGQPPRRLIYLVSILDSGVPDRFSGSGAGTDFTLKISRVEAEDVGVYYCWQGTHFPWTFGQGTKLEIKR
notes: also called h3F5-hIgG1; h3F5-IgG1
B1 was tested, and the “EC50 (read off the curve)” value (human GITR (ECD)-mFc) was about 0.02 µg/mL, the EC50 [1] was 0.112 µg/mL and the IC50 [2] was 0.101 µg/mL.

B2: 10E11VH(G24A/A67V)-hIgG1(3A) (antibody)
heavy: EVQLVQSGAEVKKPGESLRISCKASGYPVSRYWIEWVRQMPGKGLEWIGEILPGSDYANYNEKFKGHVTFSADISISTAYLQWSSLKASDTAMYYCSRKGAYYALDFWGQGTLVTVSSASTKGPSVFPLAPSSKSTSGGTAALGCLVKDYFPEPVTVSWNSGALTSGVHTFPAVLQSSGLYSLSSVVTVPSSSLGTQTYICNVNHKPSNTKVDKKVEPKSCDKTHTCPPCPAPELLGGPSVFLFPPKPKDTLMISRTPEVTCVVVDVSHEDPEVKFNWYVDGVEVHNAKTKPREEQYNATYRVVSVLTVLHQDWLNGKEYKCKVSNKALPAPIAATISKAKGQPREPQVYTLPPSRDELTKNQVSLTCLVKGFYPSDIAVEWESNGQPENNYKTTPPVLDSDGSFFLYSKLTVDKSRWQQGNVFSCSVMHEALHNHYTQKSLSLSPG
light: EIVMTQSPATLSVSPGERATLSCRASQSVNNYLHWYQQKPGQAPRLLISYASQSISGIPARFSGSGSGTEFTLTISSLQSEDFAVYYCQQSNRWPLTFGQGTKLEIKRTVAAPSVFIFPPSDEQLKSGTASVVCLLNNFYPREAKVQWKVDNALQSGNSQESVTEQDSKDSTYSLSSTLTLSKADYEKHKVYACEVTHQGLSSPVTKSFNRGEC
notes: Humanized 10E11 (AV), human IgG1 with the 3A Fc variant; also called 10E11VH(AV)-hIgG1(3A); h10E11(AV)-hIgG1(3A)
B2 was tested, and the “EC50 (read off the curve)” value (human GITR (ECD)-mFc) was about 0.006 µg/mL, the EC50 [1] was 0.102 µg/mL and the IC50 [2] was 0.151 µg/mL.

B3: h4E4-hIgG1 (antibody, V domains shown)
VH: QVQLVQSGAEVKKPGASVKVSCKASGYTFTDHYMNWVRQAPGQGLEWIGDIDPKNGGTLYNQNFKGRATLTVDKSISTAYMELSRLRSDDTAVYYCARREAMDYWGQGTLVTVSS
VL: DVVMTQSPLSLPVTPGEPASISCRSSQSIVYSNGNTYLNWYLQKPGQSPQLLIYKVSNRFSGVPDRFSGSGSGTDFTLKISRVEAEDVGVYYCFQGSHVPWTFGGGTKVEIKR
notes: Humanized 4E4, human IgG1; also called 4E4 (humanized); h4E4-IgG1
For B3, the “EC50 (read off the curve)” value (human GITR (ECD)-mFc) was about 0.06 µg/mL, the EC50 [1] was 0.0895 µg/mL and the IC50 [2] was 0.169 µg/mL.

B4: h4B11-hIgG1 (antibody, V domains shown)
VH: EVQLVQSGAEVKKPGASVKVSCKASGFTFTDSVLHWVRQAPGQRLEWIGYIHPYNDDTKFHDSFKGRATLTSDKSASTAYMELSSLRSEDTAVYYCSRNDELRVALDYWGQGTLVTVSS
VL: EIVLTQSPATLSLSPGERATLSCRASQSVSTSTYSYVHWYQQKPGQAPRLLIKYASNLESGIPARFSGSGSGTDFTLTISSLEPEDFAVYYCQHSWGNPWTFGGGTKVEIKR
notes: Humanized 4B11, human IgG1; also called 4B11 (humanized); h4B11-IgG1
With B4 the “EC50 (read off the curve)” value (human GITR (ECD)-mFc) was about 0.005 µg/mL, the EC50 [1] was 0.132 µg/mL and the IC50 [2] was 0.284 µg/mL.

B5: 13G12 (murine) (antibody, V domains shown)
VH: QVQLQQPGTELVKPGASVKLSCKASGYTFTSNWMNWVKQRPGHGLEWIGNIYPSNGGTNYNEKFKSKATLTVDKSSSTAYMQLRGLTSEDSAVYYCVRHSNYVGAMDYWGQGTSVTVSS
VL: QIVLTQSPAIMSASPGEKVTMTCGASSSVSYMYWFQQKPGSSPRLLIYDTFNLASGVPVRFSGSESGTSYSLTISRMEAEDAATYYCQHWSSYPPTFGSGTKLEIDR
notes: Mouse hybridoma monoclonal antibody
Binder B5 has an EC50 (GITR-ECD-hFc) of 0.0103 µg/mL and an IC50 [3] of 4 µg/mL.

B6: 4E4 (murine) (antibody, V domains shown)
VH: EVQLQQSGPELVKPGASVKISCKASGYTFTDHYMNWVKQSHGKSLEWIGDIDPKNGGTLYNQNFKGRATLTVDKSSSTAYMDLRSLTSEDSAVYYCARREAMDYWGQGTSVTVSS
VL: DVLMTQIPLSLPVSFGDQASISCRSSQSIVYSNGNTYLNWYLQKPGQSPKLLIYKVSNRFSGVPDRFSGSGSGTDFTLKISRVEAEDLGVYYCFQGSHVPWTFGGGTKLEIKR
notes: as for B5
B6 gave an EC50 (GITR-ECD-hFc) of 0.0017 µg/mL.

B7: 9B3 (murine) (antibody, V domains shown)
VH: QVQLQQSGAELMNLGASVKISCKATGYPVSRYWIEWLKQRPGHGPEWIGEILPGSDYANYNEKFKGKATFTADISSNSAYMQLSSLTSEDSAVYYCSRKGAYYALDFWGQGTSVTVSS
VL: DIVMTQSPATLSVTPGERVSLSCRASQSVNNYLHWYQQKSHESPRLLISYVSQSISGISSRFSGSGSGTDFTLIIHSVETEDFGMYFCQQSNRWPLTFGAGTKLELK
notes: as for B5
Binder B7 has an IC50 [3] of 0.0413 µg/mL.
